Molecular target: T1, HBcAg (Hepatitis B virus genotype D subtype ayw, UniProt P03146)
Experiment: not given
Conditions: at low concentrations, TABLE 9
From the text: (§1) One approach to rational drug design involves sequential amino acid deletion of a known binding partner starting from either the amino or carboxy termini. Amino-terminal deletions of the binding partners of SEQ. ID. Nos. 5 and 17 were made and these peptide fragments were joined to a support and analyzed for the ability to bind HBcAg. […] ID. […] The amino-terminal deletions of the peptide of SEQ. ID. […] The amino-terminal deletion products of the peptide of SEQ. ID. […] ID.
To determine whether a candidate binding partner bound to HBcAg and/or HbeAg, a multimeric support-based binding assay was performed. Accordingly, synthetic peptides corresponding to the VH and VL domains of the sequenced mAbs were passively adsorbed to 96 well microplates in serial dilutions starting at 200 μg/ml. The peptide coated plates were then incubated with HBcAg and HBeAg serially diluted in PBS-GT. The amount of HBcAg and HBeAg bound by the peptides was then detected using a mAb directed to an epitope common to HBcAg and HBeAg (See Sällberg et al., J General Virology 74:1335-1340 (1993), herein expressly incorportaed by reference in its entirety) diluted 1:3000 in PBS-GT. The quantity of bound mAb was determined by addition by peroxidase labeled rabbit anti-mouse IgG (P260, Dako A S, Denmark). The plates were developed by incubation with ortho-phenylene-diamine (Sigma) and the absorbance at 492 nm was evaluated.
The converse of an aspect of this experiment was also performed. That is, various dilutions of support-bound binding partners (SEQ. ID. Nos. 5, 16, 17, 28, and 29) were contacted with 10 μg/ml of HBcAg and binding was evaluated. ID.

T1 sequence (P03146 whole entry): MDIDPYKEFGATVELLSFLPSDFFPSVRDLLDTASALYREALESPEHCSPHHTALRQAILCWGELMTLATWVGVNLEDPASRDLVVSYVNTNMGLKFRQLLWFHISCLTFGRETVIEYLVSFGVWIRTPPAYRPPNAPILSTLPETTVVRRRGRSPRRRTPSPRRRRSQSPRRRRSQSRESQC

Sequence | Binding of 10 μg/ml HBcAg to dilutions of support-bound peptide (in words)
LAVSLGQRATISCRASQSVS (Synthetically prepared amino acid sequence) [Peptide 13] | appreciable binding at low concentrations
VKPGASVKLSCKASGYIFTS (Synthetically prepared amino acid sequence) [Peptide 2] | appreciable binding at low concentrations
ISCRASQSVSTSSYSYMHWY (Synthetically prepared amino acid sequence) [Peptide 14] | appreciable binding at low concentrations
VKPGASVKISCKASGYSFTG (Synthetically prepared amino acid sequence) [Peptide 25] | appreciable binding at low concentrations

Same assay, conditions: support-bound peptides, TABLE 7

Sequence | Binding to HBcAg (in words)
LAVSLGQRATISCRASQSVS (Synthetically prepared amino acid sequence) [Peptide 13] | high affinity
CKASGYSFTGYNMNWVKQSH (Synthetically prepared amino acid sequence) [Peptide 26] | high affinity
VKPGASVKLSCKASGYIFTS (Synthetically prepared amino acid sequence) [Peptide 2] | high affinity
ISCRASQSVSTSSYSYMHWY (Synthetically prepared amino acid sequence) [Peptide 14] | high affinity
VKPGASVKISCKASGYSFTG (Synthetically prepared amino acid sequence) [Peptide 25] | high affinity

Same assay, conditions: support-bound peptides; antigen at concentrations as low as 0.67 μg/ml, TABLE 8

Sequence | Binding to HBcAg (in words)
LAVSLGQRATISCRASQSVS (Synthetically prepared amino acid sequence) [Peptide 13] | appreciable binding
CKASGYSFTGYNMNWVKQSH (Synthetically prepared amino acid sequence) [Peptide 26] | appreciable binding
VKPGASVKLSCKASGYIFTS (Synthetically prepared amino acid sequence) [Peptide 2] | appreciable binding
ISCRASQSVSTSSYSYMHWY (Synthetically prepared amino acid sequence) [Peptide 14] | appreciable binding
VKPGASVKISCKASGYSFTG (Synthetically prepared amino acid sequence) [Peptide 25] | appreciable binding

Molecular target: T2, HBeAg (Hepatitis B virus genotype D subtype ayw, UniProt P0C573)
T2 construct: containing nine residues of pre-core and the 150 first residues of HBcAg; made in house
T2 sequence (P0C573 21-179): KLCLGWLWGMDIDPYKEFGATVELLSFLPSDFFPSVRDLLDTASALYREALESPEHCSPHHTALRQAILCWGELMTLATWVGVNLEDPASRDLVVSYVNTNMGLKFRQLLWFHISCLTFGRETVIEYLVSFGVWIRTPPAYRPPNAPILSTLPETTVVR
Experiment: Binding of HBeAg to support-bound peptides (EIA)
Conditions: antigen at concentrations as low as 0.67 μg/ml, TABLE 8

Sequence | Binding to HBeAg (in words)
LAVSLGQRATISCRASQSVS (Synthetically prepared amino acid sequence) [Peptide 13] | appreciable binding
CKASGYSFTGYNMNWVKQSH (Synthetically prepared amino acid sequence) [Peptide 26] | appreciable binding
VKPGASVKLSCKASGYIFTS (Synthetically prepared amino acid sequence) [Peptide 2] | appreciable binding
ISCRASQSVSTSSYSYMHWY (Synthetically prepared amino acid sequence) [Peptide 14] | appreciable binding
VKPGASVKISCKASGYSFTG (Synthetically prepared amino acid sequence) [Peptide 25] | appreciable binding

Molecular target: T1, HBcAg
Experiment: not given
Conditions: peptide contacted with HBcAg prior to antibody; concentrations as low as 50 μg/ml
From the text: as §1
(§2) Variations of the characterization assays described above include competitive binding assays. […] Initial experiments were conducted by contacting binding partner to HBcAg prior to introducing the antibody. […] ID. […] ID. […] ID. […] ID. […] ID. […] ID.

Sequence | Inhibition of mAb 4-2 binding to HBcAg (in words)
CKASGYSFTGYNMNWVKQSH (Synthetically prepared amino acid sequence) [Peptide 26] | appreciably reduced binding of mAb 4-2
VKPGASVKLSCKASGYIFTS (Synthetically prepared amino acid sequence) [Peptide 2] | appreciably reduced binding of mAb 4-2

Same assay, conditions: peptide contacted with HBcAg prior to antibody; concentrations as low as 100 μg/ml

Sequence | Inhibition of mAb 4-2 binding to HBcAg (in words)
CKASGYSFTGYNMNWVKQSH (Synthetically prepared amino acid sequence) [Peptide 26] | effectively reduced binding of the antibody
VKPGASVKLSCKASGYIFTS (Synthetically prepared amino acid sequence) [Peptide 2] | effectively reduced binding of the antibody
VKPGASVKISCKASGYSFTG (Synthetically prepared amino acid sequence) [Peptide 25] | effectively reduced binding of the antibody

Same assay, conditions: peptide contacted with HBcAg prior to antibody; peptide 200 μg/ml

Sequence | Inhibition of mAb 4-2 binding to HBcAg (in words)
LAVSLGQRATISCRASQSVS (Synthetically prepared amino acid sequence) [Peptide 13] | able to inhibit binding of mAb 4-2
CKASGYSFTGYNMNWVKQSH (Synthetically prepared amino acid sequence) [Peptide 26] | able to inhibit binding of mAb 4-2
VKPGASVKLSCKASGYIFTS (Synthetically prepared amino acid sequence) [Peptide 2] | able to inhibit binding of mAb 4-2
ISCRASQSVSTSSYSYMHWY (Synthetically prepared amino acid sequence) [Peptide 14] | able to inhibit binding of mAb 4-2
VKPGASVKISCKASGYSFTG (Synthetically prepared amino acid sequence) [Peptide 25] | able to inhibit binding of mAb 4-2

Molecular target: T1, HBcAg
Experiment: not given
Conditions: peptide 100 μg/ml in the presence of mAb 4-2
Description: as §2

Sequence | Competition with mAb 4-2 for binding to HBcAg (in words)
LAVSLGQRATISCRASQSVS (Synthetically prepared amino acid sequence) [Peptide 13] | effectively competed with mAb 4-2
CKASGYSFTGYNMNWVKQSH (Synthetically prepared amino acid sequence) [Peptide 26] | effectively competed with mAb 4-2
VKPGASVKLSCKASGYIFTS (Synthetically prepared amino acid sequence) [Peptide 2] | effectively competed with mAb 4-2
VKPGASVKISCKASGYSFTG (Synthetically prepared amino acid sequence) [Peptide 25] | effectively competed with mAb 4-2

Same assay, conditions: peptide 200 μg/ml in the presence of mAb 4-2

Sequence | Competition with mAb 4-2 for binding to HBcAg (in words)
LAVSLGQRATISCRASQSVS (Synthetically prepared amino acid sequence) [Peptide 13] | significantly inhibited
CKASGYSFTGYNMNWVKQSH (Synthetically prepared amino acid sequence) [Peptide 26] | significantly inhibited
VKPGASVKLSCKASGYIFTS (Synthetically prepared amino acid sequence) [Peptide 2] | significantly inhibited
VKPGASVKISCKASGYSFTG (Synthetically prepared amino acid sequence) [Peptide 25] | significantly inhibited

Same assay, conditions: peptide in the presence of mAb 4-2

Sequence | Lowest peptide concentration that prevented binding of mAb 4-2
LAVSLGQRATISCRASQSVS (Synthetically prepared amino acid sequence) [Peptide 13] | 6.25 µg/mL
VKPGASVKLSCKASGYIFTS (Synthetically prepared amino acid sequence) [Peptide 2] | 6.25 µg/mL
VKPGASVKISCKASGYSFTG (Synthetically prepared amino acid sequence) [Peptide 25] | 12.5 µg/mL

System: mAb specific for HSV gG2
Experiment: gG2 mAb binding to fusion peptide on solid phase
Conditions: no addition of fusion peptide in solution
From the text: (§3) ID. […] The specificity exchangers provided in SEQ. ID. […] Similarly, the specificity exchangers provided in SEQ. ID.

Sequence | gG2 mAb binding to indicated antigen on solid phase: fusion peptide
KLSCKASGYIFTSEHRGGPEE [SEQ. ID. No. 70] | 0.040
VKLSCKASGYIFTSGGPEEFE [SEQ. ID. No. 76] | 0.018
KLSCKASGYIFTSHRGGPEEF [SEQ. ID. No. 71] | 1.622
KLSCKASGYIFTSRGGPEEFE [SEQ. ID. No. 72] | 0.062

Same assay, conditions: specificity exchanger coated onto microtiterplates

Sequence | Binding of mAb specific for HSV gG2 to coated specificity exchanger (in words)
KLSCKASGYIFTSHRGGPEEF [SEQ. ID. No. 71] | appreciably bound the mAb

Molecular target: T1, HBcAg
Experiment: not given
Conditions: fusion peptide in solution 20 μg/well
Description: To evaluate the efficacy of the specificity exchangers described above, several binding assays using a mAb specific for HSV gG2 were conducted. In one assay, the various specificity exchangers were coated onto microtiterplates and were bound with the mAb specific for HSV gG2. […] ID. […] In another assay, HBcAg was coated onto microtiter plates, specificity exchanger was added (20 μg/well), and the binding of the mAb specific for HSV gG2 was determined. […] ID. […] In another binding assay, HBeAg was coated onto microtiter plates, specificity exchanger was added (20 μg/well), and the binding of the mAb specific for HSV gG2 was determined. […] ID. […] The characterization assays used to evaluate binding partners can also be used and/or modified for the analysis of the specificity exchangers.

Sequence | gG2 mAb binding to indicated antigen on solid phase: HBcAg
KLSCKASGYIFTSEHRGGPEE [SEQ. ID. No. 70] | 0.020
VKLSCKASGYIFTSGGPEEFE [SEQ. ID. No. 76] | 0.025
QQKPGQPPKLLIKYASNLES (Synthetically prepared amino acid sequence) [Peptide 16] | 0.038
KLSCKASGYIFTSHRGGPEEF [SEQ. ID. No. 71] | 0.550
KLSCKASGYIFTSRGGPEEFE [SEQ. ID. No. 72] | 0.016

Same assay, conditions: specificity exchanger 20 μg/well

Sequence | Binding to immobilized HBcAg allowing binding of HSV gG2 mAb (in words)
KLSCKASGYIFTSHRGGPEEF [SEQ. ID. No. 71] | appreciably bound the immobilized HBcAg

Molecular target: T2, HBeAg
Experiment: Redirection of HSV gG2 mAb to HBeAg on solid phase by fusion peptide in solution
Type: binding
Conditions: fusion peptide in solution 20 μg/well
From the text: as §3

Sequence | gG2 mAb binding to indicated antigen on solid phase: HBeAg
KLSCKASGYIFTSEHRGGPEE [SEQ. ID. No. 70] | 0.022
VKLSCKASGYIFTSGGPEEFE [SEQ. ID. No. 76] | 0.024
QQKPGQPPKLLIKYASNLES (Synthetically prepared amino acid sequence) [Peptide 16] | 0.022
KLSCKASGYIFTSHRGGPEEF [SEQ. ID. No. 71] | 0.638
KLSCKASGYIFTSRGGPEEFE [SEQ. ID. No. 72] | 0.040

Same assay, conditions: specificity exchanger 20 μg/well

Sequence | Binding to immobilized HBeAg allowing binding of HSV gG2 mAb (in words)
KLSCKASGYIFTSHRGGPEEF [SEQ. ID. No. 71] | appreciably bound the immobilized HBeAg

System: B cell - mediated antigen presentation of HBcAg to experienced T cells
Experiment: Inhibition of B cell-mediated antigen presentation of HBcAg to experienced T cells
Type: cell-based, Balb/c mice
Conditions: not given
Description: A characterization assay that was used to evaluate the ability of a binding partner to modulate a host immune system response to HBV was conducted as follows. Groups of Balb/c mice were immunized subcutaneously with 20 μg HBcAg. Ten days later, draining lymph nodes were harvested and experienced CD4^+ T cells were purified using anti-CD4 coated magnetic beads (Dynal A S, Oslo, Norway) according to the manufacturers instructions. Naïve B cells were obtained from syngeneic mice, which had not been immunized. These B cells were used as antigen presenting cells in the characterization assay.
The ability of the different mAbs and peptides to block B cell uptake and antigen presentation of HBcAg-peptides to HBcAg-specific CD4+ T cells was then tested in vitro. The cell populations were mixed at a B/T cell ratio of 1:5 and added at a final concentration of approximately 2.5×10^5 to 5.0×10^5 cells per well in a 96 well microplate. Approximately, 20 μg of HBcAg was preincubated with the binding partner. The binding partner mixtures were then added to the cells and the plates were incubated for 26 to 96 hours at 37° C. The effect of the binding partners on T cell proliferation was determined by monitoring [^3H] thymidine incorporation.

Sequence | Inhibition of B cell mediated antigen presentation of HBcAg to specific CD4+ T cells (in words)
QQKPGQPPKLLIKYASNLES (Synthetically prepared amino acid sequence) [Peptide 16] | no inhibition

Same assay, conditions: T + B cells; 20 μg HBcAg preincubated with inhibitor; positive control 573, background 110

Sequence | cpm ([3H] thymidine incorporation, T cell proliferation)
QQKPGQPPKLLIKYASNLES (Synthetically prepared amino acid sequence) [Peptide 16] | 572 cpm

Same assay, conditions: T + B cells; 20 μg HBcAg; calculated from cpm versus positive control and background proliferation

Sequence | % inhibition of APC
QQKPGQPPKLLIKYASNLES (Synthetically prepared amino acid sequence) [Peptide 16] | 0%
